B1: GpH7-A5/GpH7-B3 variant G237_04F/GpL16-k0 (antibody, human IgG1, kappa)
heavy 1: not shown
heavy 2: not shown
light: DIVMTQSPLSLPVTPGEPASISCQASESLVHSNRNTYLHWYLQKPGQSPQLLIYKVSNRFSGVPDRFSGSGSGTDFTLKISRVEAEDVGVYYCSQNTHVPPTFGQGTKVEIERTVAAPSVFIFPPSDEQLKSGTASVVCLLNNFYPREAKVQWKVDNALQSGNSQESVTEQDSKDSTYSLSSTLTLSKADYEKHKVYACEVTHQGLSSPVTKSFNRGEC
notes: Heterodimerized antibody, alteration in one H chain only; also called He Ab G237F
B2: GpH7-A5/GpH7-B3 variant L234_09D/GpL16-k0 (antibody, human IgG1, kappa)
heavy 1: not shown
heavy 2: not shown
light: B1 light
notes: Heterodimerized antibody, alteration in one H chain only; also called He Ab L234D
B3: GpH7-A5/GpH7-B3 variant G237_11K/GpL16-k0 (antibody, human IgG1, kappa)
heavy 1: not shown
heavy 2: not shown
light: B1 light
notes: Heterodimerized antibody, alteration in one H chain only; also called He Ab G237K
B4: GpH7-A5/GpH7-B3 variant G237_14T/GpL16-k0 (antibody, human IgG1, kappa)
heavy 1: not shown
heavy 2: not shown
light: B1 light
notes: Heterodimerized antibody, alteration in one H chain only; also called He Ab G237T
B5: GpH7-A5/GpH7-B3 variant G237_18N/GpL16-k0 (antibody, human IgG1, kappa)
heavy 1: not shown
heavy 2: not shown
light: B1 light
notes: Heterodimerized antibody, alteration in one H chain only; also called He Ab G237N
B6: GpH7-A5/GpH7-B3 variant G237_20W/GpL16-k0 (antibody, human IgG1, kappa)
heavy 1: not shown
heavy 2: not shown
light: B1 light
notes: Heterodimerized antibody, alteration in one H chain only; also called He Ab G237W
B7: GpH7-A5/GpH7-B3 variant G237_16H/GpL16-k0 (antibody, human IgG1, kappa)
heavy 1: not shown
heavy 2: not shown
light: B1 light
notes: Heterodimerized antibody, alteration in one H chain only; also called He Ab G237H
B8: GpH7-A5/GpH7-B3 variant G237_13S/GpL16-k0 (antibody, human IgG1, kappa)
heavy 1: not shown
heavy 2: not shown
light: B1 light
notes: Heterodimerized antibody, alteration in one H chain only; also called He Ab G237S
B9: GpH7-A5/GpH7-B3 variant G237_15Y/GpL16-k0 (antibody, human IgG1, kappa)
heavy 1: not shown
heavy 2: not shown
light: B1 light
notes: Heterodimerized antibody, alteration in one H chain only; also called He Ab G237Y
B10: GpH7-A5/GpH7-B3 variant G237_09D/GpL16-k0 (antibody, human IgG1, kappa)
heavy 1: not shown
heavy 2: not shown
light: B1 light
notes: Heterodimerized antibody, alteration in one H chain only; also called He Ab G237D
B11: GpH7-A5/GpH7-B3 variant G237_08L/GpL16-k0 (antibody, human IgG1, kappa)
heavy 1: not shown
heavy 2: not shown
light: B1 light
notes: Heterodimerized antibody, alteration in one H chain only; also called He Ab G237L
B12: GpH7-A5/GpH7-B3 variant G237_19Q/GpL16-k0 (antibody, human IgG1, kappa)
heavy 1: not shown
heavy 2: not shown
light: B1 light
notes: Heterodimerized antibody, alteration in one H chain only; also called He Ab G237Q
B13: GpH7-A5/GpH7-B3 variant G237_10E/GpL16-k0 (antibody, human IgG1, kappa)
heavy 1: not shown
heavy 2: not shown
light: B1 light
notes: Heterodimerized antibody, alteration in one H chain only; also called He Ab G237E
B14: GpH7-A5/GpH7-B3 variant G237_06M/GpL16-k0 (antibody, human IgG1, kappa)
heavy 1: not shown
heavy 2: not shown
light: B1 light
notes: Heterodimerized antibody, alteration in one H chain only; also called He Ab G237M

The target in the first test is T1, FcγRIIa H (human, UniProt P12318 34-217).
T1 construct: extracellular domain; also called FcgRIIa H; FcγRIIa type H
T1 sequence (looked up): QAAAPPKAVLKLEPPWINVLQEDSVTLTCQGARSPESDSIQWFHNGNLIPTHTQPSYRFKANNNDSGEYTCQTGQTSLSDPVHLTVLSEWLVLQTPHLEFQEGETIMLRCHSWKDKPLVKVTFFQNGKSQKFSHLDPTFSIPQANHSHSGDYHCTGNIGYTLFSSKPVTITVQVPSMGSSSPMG
In words: SPR (Biacore); He/Con_2aH divided by He/Con_2b (FcγRIIa H over FcγRIIb). (SPR reads the build-up and loss of mass on a sensor chip optically.)
For B1, the “He_2aH/2b (IIaH/IIb)” value is 0.28 ratio.

In the case of B2, the “He_2aH/2b (IIaH/IIb)” value was 0.6 ratio.

Take B3: the “He_2aH/2b (IIaH/IIb)” value was 0.64 ratio.

As for B4, the “He_2aH/2b (IIaH/IIb)” value came out at 0.58 ratio.

Consider B5, for which the “He_2aH/2b (IIaH/IIb)” value amounted to 0.08 ratio.

B6: the “He_2aH/2b (IIaH/IIb)” value came to 0.16 ratio.

B7: the “He_2aH/2b (IIaH/IIb)” value was 0.3 ratio.

Take B8: the “He_2aH/2b (IIaH/IIb)” value was found to be 0.27 ratio.

Turning to B9, the “He_2aH/2b (IIaH/IIb)” value was determined as 0.17 ratio.

B10: the “He_2aH/2b (IIaH/IIb)” value was 0.05 ratio.

Consider B11, for which the “He_2aH/2b (IIaH/IIb)” value came out at 0.09 ratio.

Regarding B12, the “He_2aH/2b (IIaH/IIb)” value was 0.25 ratio.

Consider B13, for which the “He_2aH/2b (IIaH/IIb)” value was 0.13 ratio.

In the case of B14, the “He_2aH/2b (IIaH/IIb)” value worked out at 0.14 ratio.

A further test deals with T1, FcγRIIa H. In words: SPR (Biacore), antibody captured, FcγR analyte; binding relative to GpH7-A5/GpH7-B3/GpL16-k0 = 100.
With B1, the He/Con_2aH is 41.4 % of control.

Regarding B2, the He/Con_2aH is 89.9 % of control.

As for B3, the He/Con_2aH is 5.8 % of control.

Turning to B4, the He/Con_2aH was 31.8 % of control.

In the case of B5, the He/Con_2aH was 15.2 % of control.

On to B6, for which the He/Con_2aH was 31.6 % of control.

B7: the He/Con_2aH was 16.4 % of control.

On to B8, for which the He/Con_2aH was 29.8 % of control.

With B9, the He/Con_2aH was 25.4 % of control.

B10: the He/Con_2aH was 11.1 % of control.

Take B11: the He/Con_2aH is 13.9 % of control.

As for B12, the He/Con_2aH is 26.5 % of control.

As to B13, the He/Con_2aH was 15.1 % of control.

Turning to B14, the He/Con_2aH is 17.8 % of control.

The target in the next test is T2, FcγRIIb (human, UniProt P31994 43-217).
T2 construct: extracellular domain; also called FcgRIIb; 2b
T2 sequence (looked up): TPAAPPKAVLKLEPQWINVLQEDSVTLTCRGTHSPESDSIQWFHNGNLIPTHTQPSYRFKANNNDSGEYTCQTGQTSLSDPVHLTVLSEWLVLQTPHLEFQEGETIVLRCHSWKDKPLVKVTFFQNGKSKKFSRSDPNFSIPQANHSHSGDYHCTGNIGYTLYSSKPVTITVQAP
The description is as above.
Take B1: the He/Con_2b was 149 % of control.

As to B2, the He/Con_2b is 150 % of control.

Turning to B3, the He/Con_2b is 9 % of control.

With B4, the He/Con_2b was 54.8 % of control.

For the molecule B5, the He/Con_2b was 180 % of control.

Take B6: the He/Con_2b was 193 % of control.

On to B7, for which the He/Con_2b was 55.2 % of control.

On to B8, for which the He/Con_2b was 111 % of control.

Turning to B9, the He/Con_2b was 152 % of control.

As for B10, the He/Con_2b was 223 % of control.

For the molecule B11, the He/Con_2b was 148 % of control.

Turning to B12, the He/Con_2b was 108 % of control.

On to B13, for which the He/Con_2b is 114 % of control.

In the case of B14, the He/Con_2b is 130 % of control.

(Values after patent publication US20150344570A1 (published 2015).)
